Test results as given in patent US20240182536A1 (MURAL ONCOLOGY, published 2024).

Experiments:
Assay in all cases: cell-based or functional assay
[1] = biological target: T1, IL-18 receptor (IL-18Rα and IL-18Rβ) (UniProt Q13478 19-541; O95256 20-599, limits assumed)
T1 sequence (looked up) 1: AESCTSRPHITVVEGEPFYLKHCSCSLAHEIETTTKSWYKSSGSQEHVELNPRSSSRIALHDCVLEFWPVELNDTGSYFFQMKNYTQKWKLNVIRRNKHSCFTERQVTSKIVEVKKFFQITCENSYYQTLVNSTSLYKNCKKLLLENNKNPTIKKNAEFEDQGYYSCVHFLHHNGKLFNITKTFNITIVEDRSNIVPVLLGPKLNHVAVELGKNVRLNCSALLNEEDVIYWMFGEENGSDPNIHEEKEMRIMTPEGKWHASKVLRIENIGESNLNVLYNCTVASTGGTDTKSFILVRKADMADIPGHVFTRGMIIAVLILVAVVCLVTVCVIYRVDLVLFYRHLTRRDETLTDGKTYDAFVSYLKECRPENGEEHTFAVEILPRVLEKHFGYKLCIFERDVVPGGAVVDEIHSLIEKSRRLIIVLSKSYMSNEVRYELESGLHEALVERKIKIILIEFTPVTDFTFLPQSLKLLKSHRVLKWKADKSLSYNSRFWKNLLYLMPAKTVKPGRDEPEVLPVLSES
T1 sequence (looked up) 2: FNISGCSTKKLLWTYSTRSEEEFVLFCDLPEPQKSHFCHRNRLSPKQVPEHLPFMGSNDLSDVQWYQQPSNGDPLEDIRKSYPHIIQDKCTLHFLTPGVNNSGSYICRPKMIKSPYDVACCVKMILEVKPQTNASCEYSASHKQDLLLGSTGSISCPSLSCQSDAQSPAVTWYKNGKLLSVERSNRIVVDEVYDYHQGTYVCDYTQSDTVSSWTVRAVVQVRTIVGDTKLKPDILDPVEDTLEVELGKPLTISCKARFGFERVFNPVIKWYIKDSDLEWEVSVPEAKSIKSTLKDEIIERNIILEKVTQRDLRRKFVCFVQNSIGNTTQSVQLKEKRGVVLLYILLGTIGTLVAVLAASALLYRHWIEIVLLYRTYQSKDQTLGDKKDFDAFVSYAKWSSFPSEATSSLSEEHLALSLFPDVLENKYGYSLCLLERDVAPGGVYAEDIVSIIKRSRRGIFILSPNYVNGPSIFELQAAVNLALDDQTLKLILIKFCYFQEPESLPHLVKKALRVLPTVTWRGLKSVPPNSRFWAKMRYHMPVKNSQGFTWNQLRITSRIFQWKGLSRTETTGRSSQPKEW

[2] = biological target: T2, interleukin 18 binding protein (IL-18BP) (UniProt O95998 31-194)
T2 sequence (looked up): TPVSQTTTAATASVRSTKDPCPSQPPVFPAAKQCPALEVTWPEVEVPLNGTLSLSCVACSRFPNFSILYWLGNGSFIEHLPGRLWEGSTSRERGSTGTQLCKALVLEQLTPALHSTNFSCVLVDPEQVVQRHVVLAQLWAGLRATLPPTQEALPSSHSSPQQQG

[3] = biological target: T3, human IL-18 binding protein (IL-18BP) (human, UniProt O95998 31-194)
T3 sequence (looked up): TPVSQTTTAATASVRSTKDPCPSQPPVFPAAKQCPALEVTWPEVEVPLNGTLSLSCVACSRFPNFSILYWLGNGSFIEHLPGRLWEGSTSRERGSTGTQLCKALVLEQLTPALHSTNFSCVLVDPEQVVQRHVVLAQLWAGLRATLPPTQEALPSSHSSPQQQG

[4] = biological target: T4, IL-18 receptors on HEK-Blue IL-18 reporter cells (InvivoGen) (UniProt Q13478 19-541; O95256 20-599)
T4 sequence (looked up) 1: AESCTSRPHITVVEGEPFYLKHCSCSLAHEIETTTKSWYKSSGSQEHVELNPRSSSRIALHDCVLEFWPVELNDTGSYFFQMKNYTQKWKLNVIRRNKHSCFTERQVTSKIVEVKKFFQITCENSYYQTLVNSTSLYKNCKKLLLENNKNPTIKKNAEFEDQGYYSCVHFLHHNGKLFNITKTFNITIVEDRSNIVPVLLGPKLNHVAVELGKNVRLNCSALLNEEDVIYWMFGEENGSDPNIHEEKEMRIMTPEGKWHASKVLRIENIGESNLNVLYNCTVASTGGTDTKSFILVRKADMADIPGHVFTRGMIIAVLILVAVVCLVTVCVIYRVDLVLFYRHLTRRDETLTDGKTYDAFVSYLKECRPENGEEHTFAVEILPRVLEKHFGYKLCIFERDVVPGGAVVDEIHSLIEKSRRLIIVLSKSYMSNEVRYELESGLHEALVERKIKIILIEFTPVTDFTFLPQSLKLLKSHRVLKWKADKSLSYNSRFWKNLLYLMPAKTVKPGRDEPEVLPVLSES
T4 sequence (looked up) 2: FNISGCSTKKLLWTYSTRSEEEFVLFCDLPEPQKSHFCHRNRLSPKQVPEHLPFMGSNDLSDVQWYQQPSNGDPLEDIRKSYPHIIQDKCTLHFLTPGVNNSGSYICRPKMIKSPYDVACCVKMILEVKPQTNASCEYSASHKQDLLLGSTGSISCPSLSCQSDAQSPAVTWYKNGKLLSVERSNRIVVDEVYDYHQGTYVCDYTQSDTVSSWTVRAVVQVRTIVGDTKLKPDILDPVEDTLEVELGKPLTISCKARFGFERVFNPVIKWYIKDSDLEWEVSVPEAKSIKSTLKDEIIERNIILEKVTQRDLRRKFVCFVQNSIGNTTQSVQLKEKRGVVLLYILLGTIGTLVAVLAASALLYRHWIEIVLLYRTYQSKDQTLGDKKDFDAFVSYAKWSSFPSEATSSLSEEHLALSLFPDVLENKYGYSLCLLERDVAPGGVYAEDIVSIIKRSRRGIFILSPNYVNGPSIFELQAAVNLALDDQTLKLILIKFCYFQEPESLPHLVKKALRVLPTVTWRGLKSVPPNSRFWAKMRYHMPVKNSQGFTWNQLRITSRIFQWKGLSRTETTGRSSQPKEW

[5] = biological target: T1, IL-18 receptor (IL-18Rα and IL-18Rβ); remark: listed apart in the source

B1: IL-18 variant G3Q, E6S, S55V, T63A, N91T (ligand)
chain: YFQKLSSKLSVIRNLNDQVLFIDQGNRPLFEDMTDSDMRDNAPRTIFIISMYKDVQPRGMAVAISVKSEKISTLSSENKIISFKEMNPPDTIKDTKSDIIFFQRSVPGHDNKMQFESSSYEGYFLASEKERDLFKLILKKEDELGDRSIMFTVQNED
EC50 (pM) - BP, HEK-blue re-screening [1]: 0.2 pM | EC50 (pM) + 100 nM BP, HEK-blue re-screening [2]: 35.9 pM | Ratio (HEK-blue EC50, + 100 nM BP against - BP) [2]: 180

B2: IL-18 variant M60K (ligand)
chain: YFGKLESKLSVIRNLNDQVLFIDQGNRPLFEDMTDSDMRDNAPRTIFIISMYKDSQPRGKAVTISVKSEKISTLSSENKIISFKEMNPPDNIKDTKSDIIFFQRSVPGHDNKMQFESSSYEGYFLASEKERDLFKLILKKEDELGDRSIMFTVQNED
Fold Change (BP/NO BP), 50 nM BP [3]: 1.64 fold | Fold Change (BP/NO BP), 300 nM BP [3]: 9.67 fold | HEK-Blue EC50 pM, +50 nM BP [3]: 4.77 pM | HEK-blue EC50 (pM) + 300 nM BP [3]: 38.3 pM | HEK-Blue EC50 pM, NO BP (50 nM BP run) [4]: 2.9 pM | HEK-Blue EC50 pM, NO BP (300 nM BP run) [4]: 3.96 pM

B3: IL-18 variant M60K, D157E (ligand)
chain: YFGKLESKLSVIRNLNDQVLFIDQGNRPLFEDMTDSDMRDNAPRTIFIISMYKDSQPRGKAVTISVKSEKISTLSSENKIISFKEMNPPDNIKDTKSDIIFFQRSVPGHDNKMQFESSSYEGYFLASEKERDLFKLILKKEDELGDRSIMFTVQNEE
Fold Change (BP/NO BP), 50 nM BP [3]: 1.25 fold | Fold Change (BP/NO BP), 300 nM BP [3]: 9.04 fold | HEK-Blue EC50 pM, +50 nM BP [3]: 1.62 pM | HEK-blue EC50 (pM) + 300 nM BP [3]: 15.1 pM | HEK-Blue EC50 pM, NO BP (50 nM BP run) [4]: 1.3 pM | HEK-Blue EC50 pM, NO BP (300 nM BP run) [4]: 1.67 pM

B4: IL-18 variant G3L, E6Q, T63S, N91L, R104T (ligand)
chain: YFLKLQSKLSVIRNLNDQVLFIDQGNRPLFEDMTDSDMRDNAPRTIFIISMYKDSQPRGMAVSISVKSEKISTLSSENKIISFKEMNPPDLIKDTKSDIIFFQTSVPGHDNKMQFESSSYEGYFLASEKERDLFKLILKKEDELGDRSIMFTVQNED
EC50 (pM) - BP, HEK-blue re-screening [1]: 0.03 pM | EC50 (pM) + 100 nM BP, HEK-blue re-screening [2]: 1.67 pM | Ratio (HEK-blue EC50, + 100 nM BP against - BP) [2]: 55.7

B5: IL-18 variant G3E, E6H, R27S, D54A, S55T, T63S, N91F, R104S (ligand)
chain: YFEKLHSKLSVIRNLNDQVLFIDQGNSPLFEDMTDSDMRDNAPRTIFIISMYKATQPRGMAVSISVKSEKISTLSSENKIISFKEMNPPDFIKDTKSDIIFFQSSVPGHDNKMQFESSSYEGYFLASEKERDLFKLILKKEDELGDRSIMFTVQNED
EC50 (pM) - BP, HEK-blue re-screening [1]: 0.34 pM | EC50 (pM) + 100 nM BP, HEK-blue re-screening [2]: 3.01 pM | Ratio (HEK-blue EC50, + 100 nM BP against - BP) [2]: 8.9

B6: hIL18 (G3T, E6K, K53S, M60K) - KiH (Fc fusion)
chain: YFTKLKSKLSVIRNLNDQVLFIDQGNRPLFEDMTDSDMRDNAPRTIFIISMYSDSQPRGKAVTISVKSEKISTLSSENKIISFKEMNPPDNIKDTKSDIIFFQRSVPGHDNKMQFESSSYEGYFLASEKERDLFKLILKKEDELGDRSIMFTVQNED
EC50 (pM), PBMC IFN gamma assay, average [5]: 84.4 pM | EC50 (pM), PBMC IFN gamma assay, run 1 [5]: 90.3 pM | EC50 (pM), PBMC IFN gamma assay, run 2 [5]: 121 pM | EC50 (pM), PBMC IFN gamma assay, run 3 [5]: 41.6 pM | PBMC IFN gamma EC50 relative to WT-IL18, average [5]: 0.6 | PBMC IFN gamma EC50 relative to WT-IL18, run 1 [5]: 0.37 | PBMC IFN gamma EC50 relative to WT-IL18, run 2 [5]: 1.15 | PBMC IFN gamma EC50 relative to WT-IL18, run 3 [5]: 0.26

B7: IL-18 variant G3S, E6G, D54V, S55K, T63S, N91Y, R104T (ligand)
chain: YFSKLGSKLSVIRNLNDQVLFIDQGNRPLFEDMTDSDMRDNAPRTIFIISMYKVKQPRGMAVSISVKSEKISTLSSENKIISFKEMNPPDYIKDTKSDIIFFQTSVPGHDNKMQFESSSYEGYFLASEKERDLFKLILKKEDELGDRSIMFTVQNED
EC50 (pM) - BP, HEK-blue re-screening [1]: 0.21 pM | EC50 (pM) + 100 nM BP, HEK-blue re-screening [2]: 4.87 pM | Ratio (HEK-blue EC50, + 100 nM BP against - BP) [2]: 23.2
